The values below come from US20050154189A1 (MAXYGEN, published 2005).

The test addresses T1, Soluble CD28-Ig (human, UniProt P10747 19-152, biotin-conjugated (NHS-biotin) in the labelled-ligand FACS assays).
T1 construct: extracellular domain; Bought from R&D Systems; also called sCD28-Ig; CD28-Ig Fc; not shown: Fc portion of human IgG1
The test is described as follows: two-colour FACS profile on transfected cells; score of preference for CD28-Ig over CTLA-4-Ig vs WT hB7-1.

B1: Round 2 CD28D10-4 (ligand)
chain: SGITPKSVTKRVKETVMLSCDYNTSTEELTSLRIYWQKDSKMVLAILPGKVQVWPEYKNRTITDMNDNPRIVILALRLSDKGTYTCVVQKNENGSFRREHLTSVTLSIRADFPVPSITDIGHPAPNVKRIRCSASGGFPEPRLAWMEDGEELNAVNTTVDQDLDTELYSVSSELDFNVTNNHSIVCLIKYGELSVSQIFPWSKPKQEPPIDQLPFWVIIPVSGALVLTAVVLYCLACRHVARWKRTRRNEETVGTERLSPIYLGSAQSSG
Regarding B1, the “Binding Score” value came to 0.

B2: Round 2 CD28BP-8 (ligand)
chain: ITPKSVTKRVKETVMLSCDYNTSTEELTSLRIYWQKDSKMVLAILPGKVQVWPEYKNRTITDMNDNPRIVILALRLSDSGTYTCVIQKPVLKGAYKLEHLASVRLMIRADFPVPSITDIGHPAPNVKRIRCSASGGFPEPRLAWMEDGEELNAVNTTVDQDLDTELYSVSSELDSNVTNNHSIVCLIKYGELSVSQIFPWSKPKQEPPIDQLPFWVIIPVSGALVLTAVVLYCLACRHVARWKRTRRNEETVGTERLSPIYLGSAQSSG
notes: also called clone CD28BP-8
Turning to B2, the “Binding Score” value stood at 2.

B3: Round 2 CD28B6-3 (ligand)
chain: ITPKSVTKRVKETVMLSCDYNTSTEELTSLRIYWQKDSKMVLAILPGKVQVWPEYKNRTITDMNDNPRIVILALRLSDSGTYTCVIQKPDLKGAYKLEHLTSVRLMIRADFPVPTINDLGNPSPNIRRLICSTSGGFPRPHLYWLENGEELNATNTTLSQDPETKLYMISSELDFNMTSNHSFLCLVKYGDLTVSQTFYWQESKPTPSANQHLTWTIIIPVSAFGISVIIAVILTCLTCRNAAIRRQRRENEVKMQSCSQSP
Take B3: the “Binding Score” value came out at 1.

B4: Round 2 CD28E2-5* (ligand)
chain: TTPKSVTKRVKETVMLSCDYNTSTEELTSLRIYWQKDSKMVLAILPGKVQVWPEYKNRTITDMNDNPRIVILALRPSDSGTYTCVIQKPVLKGAYKLEHLASVRLMIRADFPVPTINDLGNPSPNIRRLICSTSGGFPRPHLYWLENGEELNATNTTLSQDPETKLYMISSELDFNMTSNHSFLCLVKYGDLTVSQTFYWQESKPTPSANQHLTWTIIIPVSAFGISVIIAVILTCLTCRNAAIRRQRRENEVEMQSCSQSP
Consider B4, for which the “Binding Score” value was found to be 0.

B5: Round 2 CD28F3-1 (ligand)
chain: ITPKSVTKRVKETVMLSCDYNTSTEELTSLRIYWQKDSKMVLAILPGKVQVWPEYKNRTITDMNDNPRIVILALRLSDSGTYTCVIQKPDLKGAYKLEHLTSVRLMIRADFPVPTINDLGNPSPNIRRLICSTSGGFPRPHLYWLENGKELNATNTTLSQDPETKLYMISSELDFNMTSNHSFLCLVKYGDLTVSQTFYWQESKPTPSANQHLTWTIIIPVSAFGISVIIAVILTCLTCRNAAIRRQRRENEVEMQSCSQSP
Turning to B5, the “Binding Score” value was found to be 0.

B6: Round 2 CD28D5-6 (ligand)
chain: ITPKSVTKRVKETVMLSCDYSTSTEELTSLRIYWQKDSKMVLAILPGKVQVWPEYKNRTITDMNDNPRIVILALRLSDSGTYTCVIQKPVLKGAYKLEHLTSVRLMIRADFPVPTINDLGNPSPNIRRLICSTSGGFPRPHLYWLENGEELNATNTTLSQDPETKLYMISSELDFNMTSNHSFLCLVKYGDLTVSQSFYWQESKPTPSANQHLTWTIIIPVSAFGISVIIAVILTCLTCRNAAIRRQRRENEVEMQSCSQSP
Regarding B6, the “Binding Score” value came out at 0.

B7: Round 2 CD28E8-6 (ligand)
chain: ITPKSVTKRVKETVMLSCDYNTSTEELTSLRIYWQKDSKMVLAILPGKVQVWPEYKNRTITDMNDNPRIVILALRLSDSGTYTCVIQKPVLKGAYKLEHLTSVRLMIRADFPVPTINDLGNPSPNIRRLICSTSGGFPRPHLYWLENGEELNATNTTVSQDPETKLYMISSELDFNTTSNHSFLCLVKYGDLTVSQTFYWQESKPTPSANQHLTWTIIIPVSAFGISVIIAVILTCLTCRNAAIRRQRRENEVEMQSCSQSP
With B7, the “Binding Score” value came to 0.
